Assay results taken from the supplement of paper PMC7877785.
± gives the uncertainty stated by the source.

Assay: self-splicing fitness, log relative to wild type (ln ratio); higher = more splicing; Tetrahymena group I intron in knt gene, E. coli kanamycin selection, DiMSum; sequences stand for … in CUCUCU…GGAGGGAAAAGUUAUCAGGCAUGCACCUGGUAGCUAGUCUUUAAACCAAUAGAUUGCAUCGGUUUAAAAGGCAAGACCGUCAAAUUGCGGGAAAGGGGUCAACAGCCGUUCAGUACCAAGUCUCAGGGGAAACUUUGAGAUGGCCUUGCAAAGGGUAUGGUAAUAAGCUGACGGACAUGGUCCUAACCACGCAGCCAAGUCCUAAGUCAACAGAUCUUCUGUUGAUAUGGAUGCAGUUCACAGACUAAAUGUCGGUCGGGGAAGAUGUAUUCUUCUCAUAAGAUAUAGUCGGACCUCUCCUUAAUGGGAGCUAGCGGAUGAAGUGAUGCAACACUGGAGCCGCUGGGAACUAAUUUGUAUGCGAAAGUAUAUUGAUUAGUUUUGGAGUACUCGUGGUCG
In short: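 Library with all eight P1ex-region intron nucleotides randomised, intron inside the knt kanamycin-resistance gene on pET-22b(+), in E. coli BL21(DE3). Cells grew overnight at 37°C or 30°C on LB agar with or without 25 μg/mL kanamycin (plus 100 μg/mL carbenicillin, 50 μM IPTG, 0.2% rhamnose), in six replicate transformations. Pooled colonies were amplicon-sequenced on Illumina HiSeq 2500. DiMSum fitness is the error-weighted combination of wild-type-normalised replicate fold changes, kanamycin versus none.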

Row | Sequence | self-splicing fitness (ln) (30 °C) | self-splicing fitness (ln) (37 °C)
1 | CUAAAGCAAUAUUACGUAUG | -0.125 ± 0.059 | 0.0627 ± 0.081
2 | GAGCAGCAAUAUUACGUCGU | -1.35 ± 0.13 | -2.39 ± 0.2
3 | CACCAGCAAUAUUACGCUUG | -1.06 ± 0.052 | -0.22 ± 0.069
4 | GACAAGCAAUAUUACGGGCG | -1.27 ± 0.061 | -0.455 ± 0.072
5 | UUUAAGCAAUAUUACGAGCC | -1.83 ± 0.36 | 
6 | UACUAGCAAUAUUACGUUUU | -3.49 ± 0.19 | -1.82 ± 0.15
7 | ACUUAGCAAUAUUACGAAAU | -3.03 ± 0.23 | -1.23 ± 0.2
8 | GGCGAGCAAUAUUACGAUAA | -1.64 ± 0.13 | -0.294 ± 0.15
9 | CUUAAGCAAUAUUACGUUCU | -2.91 ± 0.19 | -2.14 ± 0.21
10 | ACGUAGCAAUAUUACGGAAG | -3.32 ± 0.3 | -1.91 ± 0.28
11 | AGUGAGCAAUAUUACGCCAU | -2.58 ± 0.43 | -0.383 ± 0.35
12 | CACCAGCAAUAUUACGUAAG | 0.114 ± 0.041 | 0.336 ± 0.061
13 | CUCCAGCAAUAUUACGUGUA | -2.95 ± 0.14 | -2.82 ± 0.19
14 | UAAUAGCAAUAUUACGGAAU | -2.77 ± 0.2 | -1.76 ± 0.2
15 | GAACAGCAAUAUUACGUUGA | -1.47 ± 0.066 | -1.02 ± 0.077
16 | AUCGAGCAAUAUUACGCCUU | -1.74 ± 0.16 | -1.72 ± 0.21
17 | GGCUAGCAAUAUUACGCGAU | -1.74 ± 0.19 | -0.776 ± 0.2
18 | UAACAGCAAUAUUACGGCGU | -1.79 ± 0.11 | -1.01 ± 0.1
19 | UGAGAGCAAUAUUACGCUGC | -2.67 ± 0.42 | 
20 | AGCCAGCAAUAUUACGAUAG | -4.04 ± 0.28 | -2.35 ± 0.24
21 | CCCGAGCAAUAUUACGUCUC |  | -2.22 ± 0.29
22 | GAGAAGCAAUAUUACGGUCG | -0.943 ± 0.11 | -0.253 ± 0.11
23 | ACCUAGCAAUAUUACGAUGU | -0.605 ± 0.045 | 0.0835 ± 0.065
24 | CAAUAGCAAUAUUACGGAGC | -2.48 ± 0.22 | -2.53 ± 0.45
25 | GUGCAGCAAUAUUACGGUGU | -3.08 ± 0.11 | -1.74 ± 0.12
26 | GAGUAGCAAUAUUACGUGGG | -3.53 ± 0.24 | -2.94 ± 0.23

Row | Sequence | self-splicing fitness (ln) (30 °C) | self-splicing fitness (ln) (37 °C)
27 | ACCUAGCAAUAUUACGCAUU | -1.42 ± 0.051 | -0.377 ± 0.056
28 | UCCUAGCAAUAUUACGCAUU | -3.92 ± 0.21 | -1.81 ± 0.11
29 | AUAAAGCAAUAUUACGGUCG | 0.114 ± 0.059 | -0.114 ± 0.083
30 | GUGUAGCAAUAUUACGUAAG | -1.56 ± 0.1 | -1.57 ± 0.16
31 | UCCGAGCAAUAUUACGAUUC | -2.88 ± 0.43 | -2.79 ± 0.48
32 | UGACAGCAAUAUUACGCCUG | -0.292 ± 0.1 | 0.595 ± 0.14
33 | AUCAAGCAAUAUUACGAACA | -1.12 ± 0.08 | -0.578 ± 0.08
34 | UUCAAGCAAUAUUACGUUUA | -1.49 ± 0.087 | -0.461 ± 0.082
35 | GCGGAGCAAUAUUACGUAGA | -3.84 ± 0.43 | -2.24 ± 0.35
36 | UGCUAGCAAUAUUACGACGG | -0.768 ± 0.16 | -0.44 ± 0.18
37 | AAGAAGCAAUAUUACGACCG | -1.05 ± 0.088 | 0.483 ± 0.14
38 | GUACAGCAAUAUUACGGGUC | -4.33 ± 0.31 | -2.79 ± 0.33
39 | GCUUAGCAAUAUUACGCCAA | -4.1 ± 0.43 | 
40 | CUCCAGCAAUAUUACGGAGU | -4.09 ± 0.31 | -1.28 ± 0.19
41 | CCGCAGCAAUAUUACGAAGG | -3.52 ± 0.18 | -2.98 ± 0.29
42 | UCCAAGCAAUAUUACGUCUU | -3.92 ± 0.19 | -1.46 ± 0.14
43 | AAGGAGCAAUAUUACGGCGU | -1.33 ± 0.13 | -0.923 ± 0.12
44 | AAUGAGCAAUAUUACGCGCU |  | -1.72 ± 0.37
45 | CACGAGCAAUAUUACGACUA | -2.71 ± 0.21 | -1.85 ± 0.15
46 | UAUUAGCAAUAUUACGGGUA | -0.742 ± 0.12 | -0.599 ± 0.11
47 | GUGAAGCAAUAUUACGUGCU | -1.99 ± 0.091 | -0.974 ± 0.1
48 | AUAGAGCAAUAUUACGAGUA | -3.77 ± 0.33 | -2.52 ± 0.28
49 | AAGGAGCAAUAUUACGGUUG | -2.52 ± 0.17 | -3.27 ± 0.32
50 | GAGAAGCAAUAUUACGUUAC | -3.39 ± 0.27 | -3.05 ± 0.35
51 | GAUUAGCAAUAUUACGGGCC | -1.66 ± 0.32 | -2.01 ± 0.47
52 | AGAGAGCAAUAUUACGAUGG | -4.56 ± 0.36 | -1.17 ± 0.29

Row | Sequence | self-splicing fitness (ln) (30 °C) | self-splicing fitness (ln) (37 °C)
53 | CCACAGCAAUAUUACGAUCA | -2.69 ± 0.33 | -1.98 ± 0.28
54 | AACUAGCAAUAUUACGUGUG | -1.47 ± 0.051 | -0.869 ± 0.067
55 | UGACAGCAAUAUUACGAACG | 0.00619 ± 0.095 | 0.256 ± 0.1
56 | GUGCAGCAAUAUUACGGUAA | -1.5 ± 0.18 | 0.218 ± 0.14
57 | AUUAAGCAAUAUUACGCAAU | -1.74 ± 0.13 | -2.34 ± 0.23
58 | UCCGAGCAAUAUUACGCGGC | -3.97 ± 0.35 | -2.46 ± 0.29
59 | AAAGAGCAAUAUUACGCUCA |  | -0.771 ± 0.37
60 | UUGUAGCAAUAUUACGUACA | -1.51 ± 0.2 | -0.822 ± 0.17
61 | UAUGAGCAAUAUUACGAUUU | -3.29 ± 0.26 | -1.76 ± 0.22
62 | CACGAGCAAUAUUACGCGAC |  | -2.76 ± 0.27
63 | CCCUAGCAAUAUUACGGAAA | -3.33 ± 0.27 | -1.5 ± 0.24
64 | AGUGAGCAAUAUUACGUGCA | -2.06 ± 0.14 | -0.509 ± 0.13
65 | UGCCAGCAAUAUUACGAUAA | -1.88 ± 0.14 | -1.19 ± 0.15
66 | AAAUAGCAAUAUUACGAGCU | -1.37 ± 0.12 | -0.386 ± 0.13
67 | GUAAAGCAAUAUUACGCGGG | -1.74 ± 0.12 | -2.08 ± 0.19
68 | GUUCAGCAAUAUUACGCUCU | -0.149 ± 0.09 | 0.0537 ± 0.097
69 | AUGUAGCAAUAUUACGGCUC | 0.231 ± 0.27 | 
70 | GACUAGCAAUAUUACGUCUA | -2.89 ± 0.2 | -0.852 ± 0.12
71 | CCGUAGCAAUAUUACGCAGG |  | -2.75 ± 0.48
72 | AAGAAGCAAUAUUACGGCUA | -0.552 ± 0.077 | -0.0286 ± 0.1
73 | UGCAAGCAAUAUUACGUAGC | -3.54 ± 0.37 | -2.48 ± 0.41
74 | CAGCAGCAAUAUUACGUCAC | -1.69 ± 0.24 | -2.75 ± 0.28
75 | GGCGAGCAAUAUUACGCUCU | -2.72 ± 0.23 | -2.06 ± 0.2
76 | GGCGAGCAAUAUUACGUGUG | -1.13 ± 0.1 | -0.745 ± 0.14
77 | UGUGAGCAAUAUUACGUUGC |  | -1.57 ± 0.37
78 | UUGAAGCAAUAUUACGGGAG | -1.2 ± 0.1 | -0.884 ± 0.12
